The values that follow are results of earlier work, collected in PMC9085562.

Series [1] has as its target H3K9me3 peptide (Homo sapiens) (UniProt P68431). Kind of series: fluorescence polarization. A general note: Fluorescence polarisation rises when a labelled molecule tumbles more slowly, as on binding a larger partner.
Series [2] concerns the target H3K9me1 peptide (Homo sapiens) (UniProt P68431).

By Kd is commonly meant the constant that tells how readily two partners part at equilibrium. Consider Cbx1 (from UniProt P83916), for which the Kd is 3.2 µM in series [1] and 12.5 µM in series [2].
